# T1: C4 peptide VGKAMYAPPIRGQIR (gp120 residues 430 to 444, HXB2 numbering) (HIV-1)
# T1 chain: VGKAMYAPPIRGQIR
# B1: rabbit monoclonal antibody R56 (antibody, V domains shown)
# VH: QSLEESGGDLVQPGASLTLTCKASGFSFGNNYDMCWVRQAPGKGLEWIGCIETGSSDSAAYATWAKGRFTISKTSSTTVTLQMTSLTAADTATYFCARNFDLWGPGTLVIVSS
# VL: QVLTQTPSSVSTAVGSAVTINCQSSQNVYSNNNLAWFQQKPGQPPRLLIYDASKLASGVPSRFKGSGSGTQFTFTISDVQCDDAATFYCLGGYDCSSGDCAAFGGGTEVVVR
# B2: rabbit monoclonal antibody R53 (antibody, V domains shown)
# VH: QSLEESGGGPVKPGGTLTLTCKASGIDFSSFYYMCWVRQAPGKGLEWIACIVTDITGESYYATWAKGRFAISKTSSTTVTLQMTSLTAADTATYFCARGDTYGYGDTVYALNLWGPGTLVTVSS
# VL: GPVLTQTPPSASEPVGGTVTIKCQASQAIDEYLGWYQQKPGQRPKLLMYYASTLASGVPSRFKGSGSGTQFTLTISDLECADAATYYCQNYYVGSSTNYAFTFGGGTEVVVK
# B3: R53 antigen-binding fragment (Fab) (Fab, V domains shown)
# VH: B2 VH
# VL: B2 VL
# Legend:
# [1] = target: JR-FL Env on pseudovirions (HIV-1 JR-FL (clade B), UniProt Q75760, strain); assay: virus capture assay
# [2] = target: gp120 of HIV-1 JR-FL (clade B) (HIV-1); assay: BLI
# [3] = target: gp120 of HIV-1 93MW965 (clade C) (HIV-1 group M subtype C, isolate …, strain); assay: BLI
# [4] = target: gp120 of HIV-1 BaL (clade B) (HIV-1 group M subtype B, isolate BaL …, UniProt Q2MKA8, strain); assay: ELISA
# [5] = target: gp120 of HIV-1 96ZM651 (clade C) (HIV-1 group M subtype C, isolate 96ZM651, strain); assay: ELISA
# [6] = target: T1, C4 peptide VGKAMYAPPIRGQIR (gp120 …); assay: crystal structure
binder,measurement,setting,value
B1,binding result,[1],binds
B2,Kd,[2],1.96 nM
same,koff,[2],0.000309 s⁻¹
same,kon,[2],157000 M⁻¹ s⁻¹
same,Kd,[3],3.98 nM
same,koff,[3],0.00121 s⁻¹
same,kon,[3],304000 M⁻¹ s⁻¹
same,binding result,[4],binds
same,binding result,[5],binds
B3,binding result,[6],binds

# Source: article PMC4522616 (Emerging Microbes & Infections, 2015)
